Assay results as given in PMC8325959.

Biological target: recombinant human GST–PBD (UniProt P53350)
Assay: in vitro binding assay, western blot quantification
Conditions: read off a plot

Chain of UniProt P53350 (P53350 whole entry, looked up): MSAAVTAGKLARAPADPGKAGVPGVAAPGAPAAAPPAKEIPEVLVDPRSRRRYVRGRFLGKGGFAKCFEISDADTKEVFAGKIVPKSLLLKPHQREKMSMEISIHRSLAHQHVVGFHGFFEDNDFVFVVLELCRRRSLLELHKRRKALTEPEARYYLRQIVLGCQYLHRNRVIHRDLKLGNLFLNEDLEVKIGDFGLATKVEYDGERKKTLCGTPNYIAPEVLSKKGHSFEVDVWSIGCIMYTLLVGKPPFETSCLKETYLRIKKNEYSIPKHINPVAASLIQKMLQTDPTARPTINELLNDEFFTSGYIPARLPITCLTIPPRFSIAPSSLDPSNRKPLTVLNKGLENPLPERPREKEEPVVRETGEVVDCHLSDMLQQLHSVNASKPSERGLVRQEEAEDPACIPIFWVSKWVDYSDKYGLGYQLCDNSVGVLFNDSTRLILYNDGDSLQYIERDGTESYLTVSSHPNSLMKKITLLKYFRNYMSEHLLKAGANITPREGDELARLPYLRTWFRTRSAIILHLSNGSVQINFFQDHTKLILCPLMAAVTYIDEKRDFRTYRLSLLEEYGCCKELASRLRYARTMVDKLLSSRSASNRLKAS

MBP–CTa (WT Ana1 CTa fragment), pre-treated with PLK1 S10T
response (single repeat PLK1 + CTa, MBP–CTa pre-treated with PLK1 (+), parent: est. 1.0): 1.1 a.u.

MBP–CTb (WT Ana1 CTb fragment), phosphorylated by Aurora A in vitro S10T
response (repeat Aurora #1, MBP–CTb pre-treated with Aurora A (+), parent: est. 1.4): 1.2 a.u. | response (repeat Aurora #2, MBP–CTb pre-treated with Aurora A (+), parent: est. 1.5): 1.2 a.u.

MBP–CTb (WT Ana1 CTb fragment), phosphorylated by PLK1 in vitro (from UniProt Q9VC64) S10T
response (repeat PLK1 #1, MBP–CTb pre-treated with PLK1 (+), parent: est. 1.7): 1.1 a.u. | response (repeat PLK1 #2, MBP–CTb pre-treated with PLK1 (+), parent: est. 1.9): 1.5 a.u. | response (repeat PLK1 #3, MBP–CTb pre-treated with PLK1 (+), parent: est. 1.8): 1.4 a.u. | response (repeat PLK1 #4, MBP–CTb pre-treated with PLK1 (+), parent: est. 2.2): 1.3 a.u.

MBP–CTb (WT Ana1 CTb fragment), pre-treated with buffer S10T
response (repeat Aurora #1, no kinase (-), parent: est. 1.4): 1 a.u. | response (repeat Aurora #2, no kinase (-), parent: est. 1.3): 1 a.u. | response (repeat PLK1 #1, no kinase (-), parent: est. 1.1): 1 a.u. | response (repeat PLK1 #2, no kinase (-), parent: est. 1.2): 1 a.u. | response (repeat PLK1 #3, no kinase (-), parent: est. 1.3): 1 a.u. | response (repeat PLK1 #4, no kinase (-), parent: est. 1.3): 1 a.u.
